Assay results from PMC7112944 (Science Advances, 2020).

Assays:
N_(460–525) [1] = target: T1, N_(460–525) (measles virus, UniProt P04851 460-525); test: ITC
T1 sequence (looked up): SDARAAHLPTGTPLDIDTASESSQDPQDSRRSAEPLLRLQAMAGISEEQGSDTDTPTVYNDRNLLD

N_(460–525) [2] = target: T1, N_(460–525); test: ITC + NMR titration

B1: Phosphoprotein XD domain (PXD), P_(457–507) (domain or fragment, measles virus, UniProt P03422 457-507, looked up)
chain: GPASRSVIRSIIKSSRLEEDRKRYLMTLLDDIKGANDLAKFHQMLMKIIMK
For B1, which dH (N_(460–525) [1]) is on record?
Its dH is -10.46 ± 0.0465 kcal/mol.

And the “stoichiometry N” value (N_(460–525) [1])?
Its value is 0.927 sites.

What about the Kd (N_(460–525) [2]) of the same binder?
Its Kd is ~5 µM.
